Laboratory results as given in patent US20210024903A1 (Pfizer, published 2021).

Experiments:
[1] = molecular target: Commercial, Control Toxin B wt (List Biologicals) (Clostridium difficile, UniProt P18177 2-2366); experiment: dot blot, non-denaturing
[2] = molecular target: wild-type C. difficile toxin B (TcdB wt, from List Bio) (C. difficile strain 630, UniProt P18177 2-2366); experiment: dot blot, nondenaturing
Chain of wild-type C. difficile toxin B (TcdB wt, from List Bio) (P18177 2-2366 limits assumed): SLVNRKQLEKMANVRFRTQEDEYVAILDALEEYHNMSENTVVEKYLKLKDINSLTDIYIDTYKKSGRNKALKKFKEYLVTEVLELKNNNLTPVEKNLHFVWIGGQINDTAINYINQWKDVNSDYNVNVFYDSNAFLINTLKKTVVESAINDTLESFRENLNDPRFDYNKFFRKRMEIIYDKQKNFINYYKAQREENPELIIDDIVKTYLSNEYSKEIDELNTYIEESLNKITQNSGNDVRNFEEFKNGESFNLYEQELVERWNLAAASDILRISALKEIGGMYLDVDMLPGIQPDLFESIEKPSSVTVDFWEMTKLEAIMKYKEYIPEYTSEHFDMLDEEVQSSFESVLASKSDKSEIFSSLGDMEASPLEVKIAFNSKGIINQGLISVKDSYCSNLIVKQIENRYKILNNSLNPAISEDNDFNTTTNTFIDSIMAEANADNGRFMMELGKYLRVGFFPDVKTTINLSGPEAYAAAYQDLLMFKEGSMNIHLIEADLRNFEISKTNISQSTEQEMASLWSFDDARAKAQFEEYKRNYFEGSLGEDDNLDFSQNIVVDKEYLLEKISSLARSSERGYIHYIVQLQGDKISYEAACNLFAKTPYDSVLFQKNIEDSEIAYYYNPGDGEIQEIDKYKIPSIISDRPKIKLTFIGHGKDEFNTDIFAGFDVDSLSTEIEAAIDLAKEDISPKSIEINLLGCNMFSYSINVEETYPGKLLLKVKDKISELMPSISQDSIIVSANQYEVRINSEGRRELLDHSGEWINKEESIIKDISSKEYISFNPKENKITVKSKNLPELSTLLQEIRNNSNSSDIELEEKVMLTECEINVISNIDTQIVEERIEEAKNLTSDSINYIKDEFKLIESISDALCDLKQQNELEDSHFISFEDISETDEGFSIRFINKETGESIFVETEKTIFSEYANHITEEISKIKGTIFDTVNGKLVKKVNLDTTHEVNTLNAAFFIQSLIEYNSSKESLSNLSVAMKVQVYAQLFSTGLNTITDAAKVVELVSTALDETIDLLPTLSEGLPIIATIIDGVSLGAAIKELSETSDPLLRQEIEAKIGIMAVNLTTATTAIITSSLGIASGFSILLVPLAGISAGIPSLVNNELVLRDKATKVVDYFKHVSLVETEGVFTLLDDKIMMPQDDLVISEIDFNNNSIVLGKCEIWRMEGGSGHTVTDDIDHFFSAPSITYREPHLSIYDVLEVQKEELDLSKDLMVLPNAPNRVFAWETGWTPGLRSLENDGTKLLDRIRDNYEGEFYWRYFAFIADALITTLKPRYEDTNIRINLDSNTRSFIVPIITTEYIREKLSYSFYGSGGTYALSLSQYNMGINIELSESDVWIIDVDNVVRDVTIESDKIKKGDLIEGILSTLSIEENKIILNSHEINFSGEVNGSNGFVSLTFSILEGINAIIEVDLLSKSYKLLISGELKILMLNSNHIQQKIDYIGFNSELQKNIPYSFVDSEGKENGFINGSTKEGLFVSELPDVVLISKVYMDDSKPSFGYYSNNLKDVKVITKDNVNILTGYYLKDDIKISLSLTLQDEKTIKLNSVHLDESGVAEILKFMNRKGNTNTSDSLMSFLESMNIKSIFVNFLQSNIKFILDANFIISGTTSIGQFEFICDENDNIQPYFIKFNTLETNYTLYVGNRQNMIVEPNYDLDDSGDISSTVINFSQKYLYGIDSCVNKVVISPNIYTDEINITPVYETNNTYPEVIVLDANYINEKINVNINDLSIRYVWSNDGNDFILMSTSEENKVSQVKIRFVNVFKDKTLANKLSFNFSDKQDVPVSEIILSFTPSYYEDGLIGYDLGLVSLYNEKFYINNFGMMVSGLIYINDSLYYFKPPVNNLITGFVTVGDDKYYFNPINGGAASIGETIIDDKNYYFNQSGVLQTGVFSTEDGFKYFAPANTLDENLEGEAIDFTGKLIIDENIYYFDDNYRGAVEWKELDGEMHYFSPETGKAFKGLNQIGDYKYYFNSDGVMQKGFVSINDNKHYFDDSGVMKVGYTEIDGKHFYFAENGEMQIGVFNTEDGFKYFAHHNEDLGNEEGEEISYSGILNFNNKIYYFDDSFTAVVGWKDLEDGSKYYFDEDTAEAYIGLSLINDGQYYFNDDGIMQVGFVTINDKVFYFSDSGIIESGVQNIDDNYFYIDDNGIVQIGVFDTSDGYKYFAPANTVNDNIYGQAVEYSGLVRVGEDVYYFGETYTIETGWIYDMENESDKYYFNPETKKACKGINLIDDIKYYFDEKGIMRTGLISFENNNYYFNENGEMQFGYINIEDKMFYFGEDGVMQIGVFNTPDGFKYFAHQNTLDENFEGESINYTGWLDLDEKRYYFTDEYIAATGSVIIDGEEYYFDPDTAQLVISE

Chain of Commercial, Control Toxin B wt (List Biologicals) (P18177 2-2366 limits assumed): as above

| Binder | binding result [1] | binding result [2] |
| --- | --- | --- |
| B9-30 (antibody, V domains shown) VH: QVQLQQPGAEVVKPGAPVKLSCKASGYPFTNYWMNWVKQRPGRGLEWIGRIDPSNSEIYYNQKFKDKATLTVDKSSSTAYIQLSSLTSEDSAVYYCASGHYGSIFAYWGQGTTLTVSS VL: VQITQSPSYLAASPGETITINCRASKSISKYLAWYQEKPGKTNKLLIYSGSTLQSGIPSRFSGSRSGTDFTLIISSLEPEDSAMYYCQQHNEYPLTFGAGTKLELKR | binds | – |
| B9-30 mAb (antibody, V domains shown) VH: QVQLQQPGAEVVKPGAPVKLSCKASGYPFTNYWMNWVKQRPGRGLEWIGRIDPSNSEIYYNQKFKDKATLTVDKSSSTAYIQLSSLTSEDSAVYYCASGHYGSIFAYWGQGTTLTVSS VL: VQITQSPSYLAASPGETITINCRASKSISKYLAWYQEKPGKTNKLLIYSGSTLQSGIPSRFSGSRSGTDFTLIISSLEPEDSAMYYCQQHNEYPLTFGAGTKLELKR | – | binds |
